The text below walks through data of IntAct's records for PubMed 17301792.

The chains are these.
B1: Translationally-controlled tumor protein homolog (Drosophila melanogaster (Fruit fly)), Q9VGS2 (parent)
chain: MKIYKDIITGDEMFADTYKMKLVDDVIYEVYGKLITRQGDDIKLEGANASAEEADEGTDITSESGVDVVLNHRLTECFAFGDKKSYTLYLKDYMKKVLAKLEEKSPDQVDIFKTNMNKAMKDILGRFKELQFFTGESMDCDGMVALVEYREINGDSVPVLMFFKHGLEEEKC
partner: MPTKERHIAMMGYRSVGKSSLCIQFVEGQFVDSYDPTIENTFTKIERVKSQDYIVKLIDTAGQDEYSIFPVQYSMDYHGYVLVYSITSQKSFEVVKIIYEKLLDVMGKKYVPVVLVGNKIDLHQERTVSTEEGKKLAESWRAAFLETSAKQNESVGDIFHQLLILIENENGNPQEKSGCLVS

One test covers variants of B1. The following applies: with rheb_drome Rheb.
With MKIYKDIITGDVMFADTYKMKLVDDVIYEVYGKLITRQGDDIKLEGANASAEEADEGTDITSESGVDVVLNHRLTECFAFGDKKSYTLYLKDYMKKVLAKLEEKSPDQVDIFKTNMNKAMKDILGRFKELQFFTGESMDCDGMVALVEYREINGDSVPVLMFFKHGLEEEKC [E12V], the “effect of a mutation on the interaction” value is on record as “decreasing interaction strength”.

The next test covers variants of B1. The following applies: with rheb_drome Rheb. The source holds these as a separate data set.
As to MKIYKDIITGDVMFADTYKMKLVDDVIYEVYGKLITRQGDDIKLEGANASAEEADEGTDITSESGVDVVLNHRLTECFAFGDKKSYTLYLKDYMKKVLAKLEEKSPDQVDIFKTNMNKAMKDILGRFKELQFFTGESMDCDGMVALVEYREINGDSVPVLMFFKHGLEEEKC [E12V], the “effect of a mutation on the interaction” value is recorded as “disrupting interaction strength”.
